Measured values reported in publication PMC6511263 (Nature, 2018).

Target: T1, SETD3 (SET domain protein 3) (human, UniProt Q86TU7)
T1 sequence: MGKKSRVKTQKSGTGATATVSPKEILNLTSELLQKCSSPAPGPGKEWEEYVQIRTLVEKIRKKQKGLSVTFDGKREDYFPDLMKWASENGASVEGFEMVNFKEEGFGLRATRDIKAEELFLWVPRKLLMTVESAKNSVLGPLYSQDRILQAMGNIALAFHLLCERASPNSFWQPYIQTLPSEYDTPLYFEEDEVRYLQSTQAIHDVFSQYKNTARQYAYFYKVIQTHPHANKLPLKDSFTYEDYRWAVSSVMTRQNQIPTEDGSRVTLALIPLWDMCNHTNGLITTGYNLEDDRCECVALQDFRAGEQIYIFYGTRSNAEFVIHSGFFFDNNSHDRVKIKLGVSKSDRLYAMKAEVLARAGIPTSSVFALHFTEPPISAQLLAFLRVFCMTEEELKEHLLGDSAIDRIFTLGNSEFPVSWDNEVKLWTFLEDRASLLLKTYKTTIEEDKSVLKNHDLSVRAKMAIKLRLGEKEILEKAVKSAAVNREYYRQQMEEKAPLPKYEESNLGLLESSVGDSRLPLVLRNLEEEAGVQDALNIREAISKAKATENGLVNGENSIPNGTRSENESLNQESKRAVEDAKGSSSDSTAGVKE
Assay: crystal structure

binding result: binds
Binder: TLKYPIEHGIVTNWD [Human beta-actin peptide (residues 66-80)]
